Measured values as given in patent US20240360228A1 (BIOLEGEND, published 2024).

Legend:
human CCR8 [1] = target: T1, human CCR8 (human, UniProt P51685 1-355); assay: flow blocking, PBMC CCR8+CD3+; competitor PE-433H
T1 construct: Native CCR8 on human PBMC (CCR8+ CD3+ or CCR8+ CD4+ lymphocytes); also called chemokine (C-C motif) receptor 8
Description: (§1) For blocking studies, 100 μL of the cell suspension were incubated with 10 μg purified isotype control, AB1, AB2, AB3, AB4, AB5, AB8, AB9, AB10, AB11, AB12, AB13, AB14, AB15, and Commercial ABI antibodies, or isotype control, as blocking agents.
(§2) After incubation with the blocking agent, the cells were incubated with 0.25 μg of the indicated PE-conjugated antibody plus anti-human CD4 APC or anti-human CD3 for another 15 minutes in the dark and then washed 2 times with Cell Staining Buffer, and acquired in a FACSCanto II flow cytometer (BD Biosciences); the data was analyzed using FCS Express (De Novo Software); MFI correspond to the CCR8+ CD4+ lymphocytes or CCR8+ CD3+ lymphocytes.
(§3) Percentage original MFI was calculated by dividing the MFI of samples blocked with AB1, AB2, AB3, AB4, AB5, AB6, AB7, AB8, AB9, AB10, AB11, AB12, AB13, AB14, AB15, and Commercial ABI antibodies, by the MFI of samples blocked with the corresponding isotype control. This value was subtracted from 100 to get a blocking percentage. The formula is shown below: […]

human CCR8 [2] = target: T1, human CCR8; assay: flow blocking, PBMC CCR8+CD3+; competitor PE-AB14
Description: as §1, §2, §3

human CCR8 [3] = target: T1, human CCR8; assay: flow blocking, PBMC CCR8+CD3+; competitor PE-L263G8
Description: as §1, §2, §3

human CCR8 [4] = target: T1, human CCR8; assay: flow blocking, PBMC CCR8+CD3+; competitor PE-AB8
Description: as §1, §2, §3

human CCR8 [5] = target: T1, human CCR8; assay: flow blocking, PBMC CCR8+CD3+; competitor PE-AB15
Description: as §1, §2, §3

human CCR8 [6] = target: T1, human CCR8; assay: flow blocking, PBMC CCR8+CD3+; competitor PE-AB6
Description: as §1, §2, §3

human CCR8 [7] = target: T1, human CCR8; assay: flow blocking, PBMC CCR8+CD3+; competitor PE-AB10
Description: as §1, §2, §3

human CCR8 [8] = target: T1, human CCR8; assay: flow blocking, PBMC CCR8+CD3+; competitor PE-AB13
Description: as §1, §2, §3

human CCR8 [9] = target: T1, human CCR8; assay: flow blocking, PBMC CCR8+CD3+; competitor PE-AB5
Description: as §1, §2, §3

human CCR8 [10] = target: T1, human CCR8; assay: flow blocking, PBMC CCR8+CD3+; competitor PE-AB7
Description: as §1, §2, §3

human CCR8 [11] = target: T1, human CCR8; assay: flow blocking, PBMC CCR8+CD3+; competitor PE-AB12
Description: as §1, §2, §3

human CCR8 [12] = target: T1, human CCR8; assay: flow blocking, PBMC CCR8+CD3+; competitor PE-AB11
Description: as §1, §2, §3

human CCR8 [13] = target: T1, human CCR8; assay: flow blocking, PBMC CCR8+CD4+; competitor PE-AB11
Description: as §1, §2, §3

human CCR8 [14] = target: T1, human CCR8; assay: flow blocking, PBMC CCR8+CD4+; competitor PE-AB3
Description: as §1, §2, §3

human CCR8 [15] = target: T1, human CCR8; assay: flow blocking, PBMC CCR8+CD4+; competitor PE-433H
Description: as §1, §2

human CCR8 [16] = target: T1, human CCR8; assay: flow blocking, PBMC CCR8+CD4+; competitor PE-AB4
Description: as §1, §2, §3

human CCR8 [17] = target: T1, human CCR8; assay: flow blocking, PBMC CCR8+CD4+; competitor PE-AB1
Description: as §1, §2, §3

human CCR8 [18] = target: T1, human CCR8; assay: flow blocking, PBMC CCR8+CD4+; competitor PE-AB14
Description: as §1, §2

human CCR8 [19] = target: T1, human CCR8; assay: flow blocking, PBMC CCR8+CD4+; competitor PE-AB6
Description: as §1, §2

human CCR8 [20] = target: T1, human CCR8; assay: flow blocking, PBMC CCR8+CD4+; competitor PE-AB13
Description: as §1, §2

human CCR8 [21] = target: T1, human CCR8; assay: flow blocking, PBMC CCR8+CD4+; competitor PE-AB10
Description: as §1, §2, §3

human CCR8 [22] = target: T1, human CCR8; assay: flow blocking, PBMC CCR8+CD4+; competitor PE-AB2
Description: as §1, §2, §3

human CCR8 [23] = target: T1, human CCR8; assay: flow blocking, PBMC CCR8+CD4+; competitor PE-AB5
Description: as §1, §2, §3

human CCR8 [24] = target: T1, human CCR8; assay: flow blocking, PBMC CCR8+CD4+; competitor PE-AB15
Description: as §1, §2, §3

human CCR8 [25] = target: T1, human CCR8; assay: flow blocking, PBMC CCR8+CD4+; competitor PE-AB12
Description: as §1, §2, §3

T1 sequence (P51685 whole entry): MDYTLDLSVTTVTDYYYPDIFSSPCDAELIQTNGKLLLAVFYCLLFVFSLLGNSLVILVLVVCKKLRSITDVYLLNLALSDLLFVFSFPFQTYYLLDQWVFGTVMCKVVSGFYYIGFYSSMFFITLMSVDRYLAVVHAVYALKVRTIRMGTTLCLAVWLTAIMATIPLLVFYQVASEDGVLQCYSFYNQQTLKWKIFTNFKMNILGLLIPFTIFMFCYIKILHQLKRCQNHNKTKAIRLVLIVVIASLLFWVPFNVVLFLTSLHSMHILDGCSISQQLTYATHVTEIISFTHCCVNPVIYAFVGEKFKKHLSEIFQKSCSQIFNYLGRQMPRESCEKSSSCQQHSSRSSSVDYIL

B1: AB7 (antibody, V domains shown)
VH: AVQLVESGGGLVQPKESLKISCAASGFTFSYAAMYWVRQTPGKGLEWVARIRTKPNNYATYYADSVKGRFTISRDDSKSMVYLQMDNLKSEDTAMYYCNIMGITRGYYFDYWGQGVMVTVSS
VL: DIQMTQSPSFLSASVGDRVTINCKASQNINRYLNWYQQQLGEAPKLLIYNANNLQTGIPSRFSGSRSGTDFTLTISSLQPEDVATYFCLQHNSWPWTFGGGTKLELK
notes: Hybridoma monoclonal; also called antibody 7; clone 7
% Blocking (human CCR8 [1]): 45.2%
MFI (human CCR8 [1]): 486
% Blocking (human CCR8 [2]): 28.5%
MFI (human CCR8 [2]): 618
% Blocking (human CCR8 [3]): 0.82%
MFI (human CCR8 [3]): 668
% Blocking (human CCR8 [4]): 26.6%
MFI (human CCR8 [4]): 873
% Blocking (human CCR8 [5]): 23.2%
MFI (human CCR8 [5]): 660
% Blocking (human CCR8 [6]): -23.2%
MFI (human CCR8 [6]): 1140
% Blocking (human CCR8 [7]): 12.2%
MFI (human CCR8 [7]): 700
% Blocking (human CCR8 [8]): -0.34%
MFI (human CCR8 [8]): 888
% Blocking (human CCR8 [9]): -6.64%
MFI (human CCR8 [9]): 1050
% Blocking (human CCR8 [10]): 47.3%
MFI (human CCR8 [10]): 616
% Blocking (human CCR8 [11]): 49.1%
MFI (human CCR8 [11]): 520
% Blocking (human CCR8 [12]): 53.2%
MFI (human CCR8 [12]): 434

B2: AB5 (antibody, V domains shown)
VH: QVQLKESGPGLVQPSQTLSLTCTVSGFSLTSYHVSWVRQPPGKGLEWMGVIWTGGSTTYNSLLKSRLSISRDISKSQVFLKMNSLQTEDTATYYCARGGTVVKGGFAYWGQGTLVTVSS
VL: DIQMTQSPASLSASLEEIVTITCQASQDIGNRLSWYQQKPGKSPQLLIYGATSLADGVPSRFSGSRSGTQYSLKISRLQVEDIGIYYCLQAYSTPLTFGSGTKLEIK
notes: Hybridoma monoclonal; Same VH/VL entries as AB6; also called antibody 5; clone 5
% Blocking (human CCR8 [13]): -6.12%
% Positive cells (human CCR8 [13]): 2.08%
% Blocking (human CCR8 [14]): 95.9%
% Positive cells (human CCR8 [14]): 0.07%
% Blocking (human CCR8 [1]): -5.58%
MFI (human CCR8 [1]): 936
% Blocking (human CCR8 [2]): 0.46%
MFI (human CCR8 [2]): 860
% Blocking (human CCR8 [15]): 12.5%
% Positive cells (human CCR8 [15]): 1.54%
% Blocking (human CCR8 [16]): 93.3%
% Positive cells (human CCR8 [16]): 0.12%
% Blocking (human CCR8 [3]): -14.2%
MFI (human CCR8 [3]): 769
% Blocking (human CCR8 [4]): 5.47%
MFI (human CCR8 [4]): 1120
% Blocking (human CCR8 [17]): 72.3%
% Positive cells (human CCR8 [17]): 0.43%
% Blocking (human CCR8 [18]): -25.4%
% Positive cells (human CCR8 [18]): 1.63%
% Blocking (human CCR8 [5]): -1.63%
MFI (human CCR8 [5]): 873
% Blocking (human CCR8 [6]): 37.3%
MFI (human CCR8 [6]): 579
% Blocking (human CCR8 [7]): -20.7%
MFI (human CCR8 [7]): 962
% Blocking (human CCR8 [19]): 95.5%
% Positive cells (human CCR8 [19]): 0.09%
% Blocking (human CCR8 [8]): -7.01%
MFI (human CCR8 [8]): 947
% Blocking (human CCR8 [9]): 14.8%
MFI (human CCR8 [9]): 840
% Blocking (human CCR8 [10]): -3.38%
MFI (human CCR8 [10]): 1210
% Blocking (human CCR8 [20]): 27.8%
% Positive cells (human CCR8 [20]): 1.43%
% Blocking (human CCR8 [21]): 5.41%
% Positive cells (human CCR8 [21]): 1.4%
% Blocking (human CCR8 [11]): -11.3%
MFI (human CCR8 [11]): 1140
% Blocking (human CCR8 [12]): -9.7%
MFI (human CCR8 [12]): 1020
% Blocking (human CCR8 [22]): 98.8%
% Positive cells (human CCR8 [22]): 0.02%
% Blocking (human CCR8 [23]): 91.1%
% Positive cells (human CCR8 [23]): 0.18%
% Blocking (human CCR8 [24]): -29.5%
% Positive cells (human CCR8 [24]): 1.67%
% Blocking (human CCR8 [25]): 0%
% Positive cells (human CCR8 [25]): 1.8%

B3: AB6 (antibody, V domains shown)
VH: QVQLKESGPGLVQPSQTLSLTCTVSGFSLTSYHVSWVRQPPGKGLEWMGVIWTGGSTTYNSLLKSRLSISRDISKSQVFLKMNSLQTEDTATYYCARGGTVVKGGFAYWGQGTLVTVSS
VL: DIQMTQSPASLSASLEEIVTITCQASQDIGNRLSWYQQKPGKSPQLLIYGATSLADGVPSRFSGSRSGTQYSLKISRLQVEDIGIYYCLQAYSTPLTFGSGTKLEIK
notes: Hybridoma monoclonal; Same VH/VL entries as AB5; also called antibody 6; clone 6
% Blocking (human CCR8 [1]): 10.7%
MFI (human CCR8 [1]): 792
% Blocking (human CCR8 [2]): 3.88%
MFI (human CCR8 [2]): 831
% Blocking (human CCR8 [3]): -16.3%
MFI (human CCR8 [3]): 783
% Blocking (human CCR8 [4]): 33.8%
MFI (human CCR8 [4]): 787
% Blocking (human CCR8 [5]): 13.3%
MFI (human CCR8 [5]): 745
% Blocking (human CCR8 [6]): -4.93%
MFI (human CCR8 [6]): 969
% Blocking (human CCR8 [7]): -11.6%
MFI (human CCR8 [7]): 890
% Blocking (human CCR8 [8]): 2.54%
MFI (human CCR8 [8]): 862
% Blocking (human CCR8 [9]): 0.71%
MFI (human CCR8 [9]): 979
% Blocking (human CCR8 [10]): 32.7%
MFI (human CCR8 [10]): 786
% Blocking (human CCR8 [11]): -3.13%
MFI (human CCR8 [11]): 1050
% Blocking (human CCR8 [12]): -18.3%
MFI (human CCR8 [12]): 1100
